Laboratory results: the supplement of paper PMC9233669
Fewer inactive variants are shown than the library holds.

Key:
biotinyl-Ile-oxazolone = test: self-aminoacylation, catalytic enhancement (BIO) (fold over background); higher = more active; k-Seq, kA / k0A0; sequences stand for … in GGGAAUGGAUCCACAUCUACGAAUUC…UUCACUGCAGACUUGACGAAGCUG
In short: (§1)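 Each biotinyl-aminoacyl-oxazolone, at 2–1250 μM, was incubated with mutagenized RNA pools (0.43 μM) carrying a 21-nt variable region. The 50 μL reactions contained HEPES/NaCl/KCl/MgCl2/CaCl2 buffer with 5% acetonitrile at pH 6.9–7.0 and ran for 90 minutes at room temperature. After streptavidin capture, RNA was measured by qPCR in triplicate and by Illumina sequencing, and catalytic enhancement was calculated as median kA over the uncatalyzed rate from a pseudo-first-order fit of per-sequence fraction reacted.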

biotinyl-Met-oxazolone = test: self-aminoacylation, catalytic enhancement (BMO) (fold over background); higher = more active; k-Seq, kA / k0A0; sequences stand for … in GGGAAUGGAUCCACAUCUACGAAUUC…UUCACUGCAGACUUGACGAAGCUG
In short: as §1

biotinyl-Phe-oxazolone = test: self-aminoacylation, catalytic enhancement (BFO) (fold over background); higher = more active; k-Seq, kA / k0A0; sequences stand for … in GGGAAUGGAUCCACAUCUACGAAUUC…UUCACUGCAGACUUGACGAAGCUG
In short: as §1

biotinyl-Val-oxazolone = test: self-aminoacylation, catalytic enhancement (BVO) (fold over background); higher = more active; k-Seq, kA / k0A0; sequences stand for … in GGGAAUGGAUCCACAUCUACGAAUUC…UUCACUGCAGACUUGACGAAGCUG
In short: as §1

biotinyl-Trp-oxazolone = test: self-aminoacylation, catalytic enhancement (BWO) (fold over background); higher = more active; k-Seq, kA / k0A0; sequences stand for … in GGGAAUGGAUCCACAUCUACGAAUUC…UUCACUGCAGACUUGACGAAGCUG
In short: as §1

biotinyl-Leu-oxazolone = test: self-aminoacylation, catalytic enhancement (BLO) (fold over background); higher = more active; k-Seq, kA / k0A0; sequences stand for … in GGGAAUGGAUCCACAUCUACGAAUUC…UUCACUGCAGACUUGACGAAGCUG
In short: as §1

Row | Sequence | self-aminoacylation (biotinyl-Ile-oxazolone) | self-aminoacylation (biotinyl-Met-oxazolone) | self-aminoacylation (biotinyl-Phe-oxazolone) | self-aminoacylation (biotinyl-Val-oxazolone) | self-aminoacylation (biotinyl-Trp-oxazolone) | self-aminoacylation (biotinyl-Leu-oxazolone)
1 | CUACUUCACACCAUCGGUCUG [Fam1A.1 aminoacylation ribozyme variant] | 0.82 | 0.943 | 0.625 | 0.949 | 0.885 | 0.764
2 | CUACUUCACUCAAUCGGUCUG [Fam1A.1 aminoacylation ribozyme variant] | 0.732 | 0.72 | 0.865 | 0.934 | 0.651 | 0.719
3 | CUACUUCAGAAAAUCGGUCUG [Fam1A.1 aminoacylation ribozyme variant] | 0.791 | 0.803 | 1.55 | 0.816 | 0.826 | 0.757
4 | CUACUUCAGACAAGCGGUCUG [Fam1A.1 aminoacylation ribozyme variant] | 0.839 | 1.26 | 0.263 | 0.96 | 0.406 | 0.966
5 | CUACUUCAGACAAUCGAUCUG [Fam1A.1 aminoacylation ribozyme variant] | 0.669 | 0.542 | 0.994 | 0.634 | 0.493 | 0.477
6 | CUACUUCAGACAAUCGGACUG [Fam1A.1 aminoacylation ribozyme variant] | 0.864 | 0.586 | 0.835 | 0.829 | 0.652 | 0.662
7 | CUACUUCAGACAAUCGGUGUG [Fam1A.1 aminoacylation ribozyme variant] | 1.23 | 1.57 | 3.43 | 1.4 | 1.7 | 1.5
8 | CUACUUCAGACAAUCGGUUUG [Fam1A.1 aminoacylation ribozyme variant] | 0.771 | 0.613 | 0.819 | 0.86 | 0.646 | 0.596
9 | CUACUUCAGACAAUCGUUCUG [Fam1A.1 aminoacylation ribozyme variant] | 0.59 | 0.477 | 0.453 | 0.659 | 0.342 | 0.512
10 | CUACUUCAGACAAUGGGUCUG [Fam1A.1 aminoacylation ribozyme variant] | 0.948 | 0.798 | 0.994 | 0.791 | 0.664 | 0.916
11 | CUACUUCAGAGAAUCGGUCUG [Fam1A.1 aminoacylation ribozyme variant] | 0.846 | 0.951 | 0.895 | 0.806 | 0.7 | 0.853
12 | CUACUUCAUACAAACGGUCUG [Fam1A.1 aminoacylation ribozyme variant] | 0.936 | 0.725 | 1.06 | 0.803 | 0.536 | 0.652
13 | CUACUUCAUACAAUCGCUCUG [Fam1A.1 aminoacylation ribozyme variant] | 0.66 | 0.626 | 0.52 | 0.627 | 0.357 | 0.605
14 | CUACUUCAUACAAUCGUUCUG [Fam1A.1 aminoacylation ribozyme variant] | 0.535 | 0.476 | 0.733 | 0.655 | 0.371 | 0.477
15 | CUACUUCAUACAUUCGGUCUG [Fam1A.1 aminoacylation ribozyme variant] | 0.955 | 0.894 | 1.05 | 0.965 | 0.96 | 1.04
16 | CUACUUCCAACAAUCCGUCUG [Fam1A.1 aminoacylation ribozyme variant] | 0.794 | 0.771 | 0.668 | 0.886 | 0.524 | 0.999
17 | CUACUUCCAACAAUCGAUCUG [Fam1A.1 aminoacylation ribozyme variant] | 0.747 | 0.494 | 0.773 | 0.549 | 0.608 | 0.664
18 | CUACUUCCAACAAUCGGUCUG [Fam1A.1 aminoacylation ribozyme variant] | 0.766 | 0.722 | 1.11 | 0.768 | 0.831 | 0.702
19 | CUACUUCCAACACUCGGUCUG [Fam1A.1 aminoacylation ribozyme variant] | 0.978 | 1.03 | 0.522 | 0.958 | 0.796 | 1.01
20 | CUACUUCGAACAAUCCGUCUG [Fam1A.1 aminoacylation ribozyme variant] | 0.636 | 0.738 | 0.35 | 0.745 | 0.588 | 0.587
21 | CUACUUCGAACAAUCGGACUG [Fam1A.1 aminoacylation ribozyme variant] | 0.679 | 0.593 | 0.493 | 0.502 | 0.492 | 0.65
22 | CUACUUCGAACAAUCGGUCCG [Fam1A.1 aminoacylation ribozyme variant] | 0.879 | 1.09 | 2.05 | 0.738 | 0.959 | 0.865
23 | CUACUUCGAACAAUCGGUCGG [Fam1A.1 aminoacylation ribozyme variant] | 1.02 | 1.34 | 2.37 | 0.922 | 0.974 | 1.41
24 | CUACUUCGAACACUCGGUCUG [Fam1A.1 aminoacylation ribozyme variant] | 1.02 | 1.04 | 3.18 | 1.18 | 1 | 1.32
25 | CUACUUCGAACAUUCGGUCUG [Fam1A.1 aminoacylation ribozyme variant] | 1.29 | 1.05 | 0.576 | 1.32 | 0.84 | 1.18
26 | CUACUUCGAAGAAUCGGUCUG [Fam1A.1 aminoacylation ribozyme variant] | 0.875 | 0.933 | 0.287 | 0.839 | 0.567 | 0.757
